According to US7067618B1, “Medicinal preparations” (Kyowa Hakko Kogyo Co., Ltd., priority 1998, dated 2006):

Key:
[1] = Release of sialyllactose from insulin-sialyllactose reaction products caused by pH lowering (HPLC); type: physicochemical; conditions: for Proportion by HPLC, Release of Sialyllactose Caused by pH Lowering to 5.3: pH 5.3, 40° C.; for Proportion by HPLC, Release of Sialyllactose Caused by pH Lowering to 6.4: pH 6.4, 40° C.
Method: Bovine pancreatic insulin (0.2 mg, Wako Pure Chemical Industries, Ltd.) was dissolved in 1 mL of a 1 mmol/L aqueous solution of hydrochloric acid. To about 25 mg of sialyllactose of 75% purity (a mixture of 3′-sialyllactose and 6′-sialyllactose, Boehringer Mannheim GmbH) was added 0.1 mL of a 600 mmol/L aqueous solution of disodium hydrogenphosphate to make a solution. The insulin solution (0.1 mL) and the sialyllactose solution (0.1 mL) were mixed in a test tube to give a mixture having a pH of about 7.8. The test tube was put into a constant temperature water bath at 40° C. to cause reaction and left for 3 days. The reaction mixture was sampled intermittently, followed by centrifugation at 3000 rpm for 20 minutes to remove insoluble materials. The samples collected 0, 1 and 3 days after the start of the reaction were analyzed for products obtained by the reaction of insulin with sialyllactose by HPLC under the following conditions. • Column: YMC-Pack ODS-AP, 4.6×150 mm • Mobile phase: 20 mmol/L phosphate buffer (pH 8.0) containing 0.001% Triton X-100: acetonitrile containing 0.001% Triton X-100=411 parts by volume: 140 parts by volume • Flow rate: 1.3 mL/minute • Detection wavelength: 220 nm
(§1) Bovine pancreatic insulin (0.2 mg, Wako Pure Chemical Industries, Ltd.) was dissolved in 1 mL of a 1 mmol/L aqueous solution of hydrochloric acid. To about 25 mg of sialyllactose of 75% purity (a mixture of 3′-sialyllactose and 6′-sialyllactose, Boehringer Mannheim GmbH) was added 0.1 mL of a 600 mmol/L aqueous solution of disodium hydrogenphosphate to make a solution. The insulin solution (0.1 mL) and the sialyllactose solution (0.1 mL) were mixed in a test tube to give a solution having a pH of about 7.8. This solution was subjected to reaction at 40° C. for 3 days and then centrifuged at 3000 rpm for 20 minutes. To 40 μL of the supernatant was added 0.04 mL of a 50 mmol/L-aqueous solution of citric acid to adjust the pH to 6.4, and the resulting solution was subjected to reaction at 40° C. The reaction mixture was intermittently sampled and analyzed for products obtained by the reaction of insulin with sialyllactose by HPLC in a manner similar to that in Example 2.
as §1, with “centrifuged 1” for “centrifuged”, “100 mmol/L aqueous” for “50 mmol/L-aqueous”, “5.3,” for “6.4,”

[2] = Release of lactose from insulin-lactose reaction products caused by pH lowering (HPLC); type: physicochemical; conditions: for Proportion by HPLC, Release of Lactose Caused by pH Lowering to 5.0: pH 5.0, 40° C.; for Proportion by HPLC, Release of Lactose Caused by pH Lowering to 5.9: pH 5.9, 40° C.; for Proportion by HPLC, Release of Lactose Caused by pH Lowering to 6.7: pH 6.7, 40° C.
Method: A solution of 0.2 mg of bovine pancreatic insulin (Wako Pure Chemical Industries, Itd.) in 1 mL of a 2 mmol/L aqueous solution of hydrochloric acid, a solution of 320 mg of anhydrous β-lactose (Nacalai Tesque, Inc.) in 2 mL of distilled water, and 1 mL of a 200 mmol/L phosphate buffer (pH 8.4) were mixed in a test tube to give a mixture having a pH of about 8.1. The test tube was put into a constant temperature water bath at 40° C. to cause reaction. The reaction mixture was sampled after 0, 5 and 24 hours, and analyzed for products obtained by the reaction of insulin with lactose by high performance liquid chromatography (HPLC) under the following conditions. • Column: YMC-Pack ODS-A or YMC-Pack ODS-AM, 6.0×150 mm • Mobile phase: 100 mmol/L phosphate buffer (pH 8.0) containing 0.001% Triton X-100: acetonitrile containing 0.001% Triton X-100=25 parts by volume: 9 parts by volume • Flow rate: 1.3 mL/minute • Detection wavelength: 210 nm
(§2) A solution of 0.2 mg of bovine pancreatic insulin (Wako Pure Chemical Industries, Itd.) in 1 mL of a 2 mmol/L aqueous solution of hydrochloric acid, a solution of 320 mg of anhydrous β-lactose (Nacalai Tesque, Inc.) in 2 mL of distilled water, and 1 mL of a 200 mmol/L phosphate buffer (pH 8.4) were mixed in a test tube. The mixture was subjected to reaction at 40° C. for 24 hours. To 3 mL of the resulting solution was added 0.5 mL of a 50 mmol/L aqueous solution of citric acid to adjust the pH to 6.7, and the mixture was subjected to reaction at 40° C. The samples collected from the reaction mixture 0 and 30 minutes after the start of the reaction were analyzed for products obtained by the reaction of insulin with lactose by HPLC in a manner similar to that in Example 1.
as §2, with “100” for “50”, “5.9,” for “6.7,”, “The” for “The samples collected from the”, “was intermittently” for “0 and 30 minutes after the start of the reaction were”
as §2, with “a 150” for “a 50”, “to 5.0,” for “to 6.7,”, “The” for “The samples collected from the”, “mixture was intermittently sampled” for “mixture 0”, “and” for “and 30 minutes after the start of the reaction were”

Insulin: bovine pancreatic insulin (Wako Pure Chemical Industries); free insulin to which no sugar is bound
Proportion by HPLC, Release of Sialyllactose Caused by pH Lowering to 5.3 ([1]; 0 minute): 31% | Proportion by HPLC, Release of Sialyllactose Caused by pH Lowering to 5.3 ([1]; 10 minutes): 58% | Proportion by HPLC, Release of Sialyllactose Caused by pH Lowering to 5.3 ([1]; 30 minutes): 80% | Proportion by HPLC, Release of Sialyllactose Caused by pH Lowering to 6.4 ([1]; 0 minute): 31% | Proportion by HPLC, Release of Sialyllactose Caused by pH Lowering to 6.4 ([1]; 10 minutes): 44% | Proportion by HPLC, Release of Sialyllactose Caused by pH Lowering to 6.4 ([1]; 30 minutes): 50% | Proportion by HPLC, Release of Lactose Caused by pH Lowering to 5.0 ([2]; 0 minute): 21% | Proportion by HPLC, Release of Lactose Caused by pH Lowering to 5.0 ([2]; 2 minutes): 60% | Proportion by HPLC, Release of Lactose Caused by pH Lowering to 5.0 ([2]; 10 minutes): 83% | Proportion by HPLC, Release of Lactose Caused by pH Lowering to 5.0 ([2]; 30 minutes): 93% | Proportion by HPLC, Release of Lactose Caused by pH Lowering to 5.0 ([2]; 60 minutes): 95% | Proportion by HPLC, Release of Lactose Caused by pH Lowering to 5.9 ([2]; 0 minute): 24% | Proportion by HPLC, Release of Lactose Caused by pH Lowering to 5.9 ([2]; 2 minutes): 35% | Proportion by HPLC, Release of Lactose Caused by pH Lowering to 5.9 ([2]; 10 minutes): 59% | Proportion by HPLC, Release of Lactose Caused by pH Lowering to 5.9 ([2]; 30 minutes): 76% | Proportion by HPLC, Release of Lactose Caused by pH Lowering to 5.9 ([2]; 60 minutes): 75% | Proportion by HPLC, Release of Lactose Caused by pH Lowering to 6.7 ([2]; 0 minute): 25% | Proportion by HPLC, Release of Lactose Caused by pH Lowering to 6.7 ([2]; 30 minutes): 45%
